Target: the molecule itself
Assay: velocity gradient sedimentation

B1: wild-type HTLV-1 envelope precursor glycoprotein (natural protein, UniProt P03381 21-488, looked up)
chain: DYSPSCCTLTIGVSSYHSKPCNPAQPVCSWTLDLLALSADQALQPPCPNLVSYSSYHATYSLYLFPHWTKKPNRNGGGYYSASYSDPCSLKCPYLGCQSWTCPYTGAVSSPYWKFQHDVNFTQEVSRLNINLHFSKCGFPFSLLVDAPGYDPIWFLNTEPSQLPPTAPPLLPHSNLDHILEPSIPWKSKLLTLVQLTLQSTNYTCIVCIDRASLSTWHVLYSPNVSVPSSSSTPLLYPSLALPAPHLTLPFNWTHCFDPQIQAIVSSPCHNSLILPPFSLSPVPTLGSRSRRAVPVAVWLVSALAMGAGVAGGITGSMSLASGKSLLHEVDKDISQLTQAIVKNHKNLLKIAQYAAQNRRGLDLLFWEQGGLCKALQEQCRFPNITNSHVPILQERPPLENRVLTGWGLNWDLGLSQWAREALQTGITLVALLLLVILAGPCILRQLRHLPSRVRYPHYSLIKPESSL
stoichiometry N: 2

Source: publication PMC2148214 (The Journal of Cell Biology, 1999)
